Reference: patent US20240315219A1, “ANIMAL MODEL FOR DISEASES ASSOCIATED WITH ABSENCE OR REDUCTION OF SOCIAL DOMINANCE, AND PHARMACEUTICAL COMPOSITION FOR PREVENTING OR TREATING DISEASES” (ADEL, Inc., priority 2021, published 2024)

How the values were obtained:
CRTC3 KO mice [1] = test: Warm spot test; type: in vivo, mouse; conditions: ICV osmotic pump, before vs after
Experimental: The warm spot test was performed using the following apparatus and method. The test apparatus was a box with dimensions of 30 cm by 30 cm, and the bottom was kept cold by ice. A fan-shaped heating mat of approximately 3 cm was laid one corner of the bottom to warm only that part of the bottom. In the first test, the mice were placed in a box with all bottom surfaces cold and kept thereon for 30 minutes to get used to the environment. After 30 minutes, the mice were moved to a box with a heating mat on one corner of the bottom, and the time each mouse occupied the bottom surface with the heating mat was measured for 20 minutes. Based on the measured time, each mouse's ranking in the group was determined.
(§1) First, starting at 1 month of age, the CRTC3 KO mice and the WT mice were housed in one group and raised together for 2 months. This allowed social ranking to be naturally formed among the mice in the same group. To determine changes in ranking of the mice in the group, social dominance ranking was evaluated by a tube dominance test daily for 15 days starting at 3 months of age. The respective mice in the group were tested in turn, and dominance ranking of the mice in the group was determined based on their winning points. […]

C57BL/6 mice = test: Tube dominance test, lowest-ranked mouse in C57BL/6 mouse group; type: in vivo; conditions: lowest-ranked C57BL/6 mouse, intracerebroventricular via osmotic pump
Experimental: (§2) The apparatus for the tube dominance test was made of a transparent plastic tube with a length of 30 cm and an inner diameter of 2.5 cm. To allow the mice to adapt to passing through the inside of the tube, the respective mice were trained to pass across the tube alternately on both sides for two or three consecutive days. During the training period, care was taken to ensure that the mice passed through the tube as naturally as possible without causing stress. This test was performed after identifying that all mice could freely pass through the tube without stress.
(§3) During the dominance test period, a total of 2 mice, one at each end of the tube, were placed to meet in the middle of the tube. In a case where one mouse pushed the other mouse out of the tube, one (1) winning point was earned. The test was repeated three times. […] For each test, win or loss was determined by winning points.
as §1, with “This allowed social ranking to be naturally formed among the mice in the same group.” left out

[2] = tested on: CRTC3 KO primary astrocytes; test: Cell shape index (CSI) of astrocytes, GFAP immunocytochemistry; type: cell-based, mouse; conditions: AREG 200 ng/ml, vs WT astrocytes
Experimental: Next, to identify localization of CRTC3 in the cellular changes induced in astrocytes, comparison of astrocyte shape was performed between the CRTC3 KO mice and the WT mice. The shape of the cells was observed using GFAP as an astrocyte marker through fluorescent staining according to the method described in Experimental Example 1.4.
To more accurately compare the astrocyte shapes, complexity of the astrocyte shape was determined using the cell shape index (CSI) defined as follows (in the formula, P is a cell's perimeter and A is a cell's area).
Immunocytochemistry was performed as follows. First, a 12 mm coverslip (Marienfeld, Germany) coated with PDL was placed in a 24-well plate, and cells were plated thereon. Then, the cells were fixed with 4% paraformaldehyde (Biosesang, Korea) for 10 minutes. The cells were washed three times with PBS, and then subjected to permeabilization with PBS containing 0.1% Triton X-100 for 5 minutes at room temperature. The cells were washed again three times and blocked with PBS containing 5% bovine serum albumin (BSA) at 37° C. for 30 minutes. The cells were washed three times and incubated with mouse anti-GFAP antibody (Chemicon-Millipore, USA) overnight at 4° C. […] Then, each sample was mounted using a fluorescence mounting solution (DAKO, USA) for imaging.

CRTC3 KO mice [3] = test: Tube dominance test, CRTC3 KO mice housed with WT mice; type: in vivo, mouse
Experimental: as §2
as §3, with “points. […]” for “points.”
as §1, with “This allowed social ranking to be naturally formed among the mice in the same group.” left out

B1: AREG: Recombinant mouse amphiregulin from R&D Systems, SEQ ID NO: 11; EGF receptor ligand (protein, listed as Mus musculus)
chain: SVRVEQVIKPKKNKTEGEKSTEKPKRKKKGGKNGKGRRNKKKKNPCTAKFQNFCIHGECRYIENLEVVTCNCHQDYFGERCGEKSMKTHSEDDKDLSK
modifications: Mouse AREG Protein
notes: EGF receptor ligand
- social dominance ranking in warm spot test after administration (CRTC3 KO mice [1]): increased social dominance ranking
- time occupying the warm spot after administration (CRTC3 KO mice [1]): increase in the time they occupied the warm spot
- cages in which ranking of the lowest-ranked mouse increased after administration (C57BL/6 mice): 71%
- cell shape index (CSI) [2]: increased a CSI level of the primary astrocytes in the CRTC3 KO mice to that of the WT astrocytes
- cages in which changes (increase) in social dominance ranking were observed after administration (CRTC3 KO mice [3]; CRTC3 KO mice with low ranking, housed with WT mice, intracerebroventricular via osmotic pump): 81%
- winning points after vs before administration (CRTC3 KO mice [3]; CRTC3 KO mice, ICV osmotic pump): increase in winning points
